Measurements published in US20260191981A1 (ARROWHEAD PHARMACEUTICALS, published 2026).

Tests used:
[1] = molecular target: T1, biotinylated cTfR1 (Acro Bio p/n TFR-C8249) (cynomolgus monkey, UniProt H9EXL1 89-760 (rhesus entry), biotinylated; site not stated); experiment: BLI, Octet RH16, biotinylated TfR1 on streptavidin sensor; Fab-siRNA conjugate
T1 construct: Bought reagent of the BLI assay
Procedure: Samples were analyzed via Bio-Layer Interferometry (BLI) to determine kinetics against cynomolgus monkey transferrin receptor 1 (cTfR1). Briefly, an Octet RH16 (Sartorius) was used for BLI measurements using streptavidin biosensors (Sartorius p/n 18-5019) to irreversibly immobilize biotinylated cTfR1 (Acro Bio p/n TFR-C8249). […] Sample diluent was prepared in house and is composed of 10 mM PBS pH 7.4 (150 mM NaCl), 0.01% BSA, 0.002% Tween 20, and 0.01% kathon. A 96-well plate was used for analysis, filled with required samples solutions and a row of 10 μg/mL cTfR1 for loading of the streptavidin sensors. For each sample, one well was reserved for a reference sensor control (non-specific binding evaluation with no cTfR1 on surface in highest sample concentration) and a sample reference (buffer only on a cTfR1 loaded sample). One well was also reserved for a second replicate of one of the five concentrations to evaluate sensor and method variability. Eight channels were used for the highest sensitivity offered by the Octet RH16. For each assay performed, the steps were as follows: a sensor check for baseline evaluation of sensor alone in buffer was performed for 30 seconds, followed by loading of the cTfR1 for 60 seconds, then a baseline check for 90 seconds to verify stability of cTfR1 immobilized to sensor surface, then sample association for 180 seconds, and finally sample dissociation for 300 seconds. A shake speed of 1000 was used for all steps. Sample results were analyzed in Octet Analysis software.

[2] = molecular target: T2, biotinylated hTfR1 (Acro Bio p/n TFR-H82E5) (human, UniProt P02786 89-760, biotinylated; site not stated); experiment: as above
T2 construct: Bought reagent of the BLI assay
T2 sequence (P02786 89-760 limits assumed): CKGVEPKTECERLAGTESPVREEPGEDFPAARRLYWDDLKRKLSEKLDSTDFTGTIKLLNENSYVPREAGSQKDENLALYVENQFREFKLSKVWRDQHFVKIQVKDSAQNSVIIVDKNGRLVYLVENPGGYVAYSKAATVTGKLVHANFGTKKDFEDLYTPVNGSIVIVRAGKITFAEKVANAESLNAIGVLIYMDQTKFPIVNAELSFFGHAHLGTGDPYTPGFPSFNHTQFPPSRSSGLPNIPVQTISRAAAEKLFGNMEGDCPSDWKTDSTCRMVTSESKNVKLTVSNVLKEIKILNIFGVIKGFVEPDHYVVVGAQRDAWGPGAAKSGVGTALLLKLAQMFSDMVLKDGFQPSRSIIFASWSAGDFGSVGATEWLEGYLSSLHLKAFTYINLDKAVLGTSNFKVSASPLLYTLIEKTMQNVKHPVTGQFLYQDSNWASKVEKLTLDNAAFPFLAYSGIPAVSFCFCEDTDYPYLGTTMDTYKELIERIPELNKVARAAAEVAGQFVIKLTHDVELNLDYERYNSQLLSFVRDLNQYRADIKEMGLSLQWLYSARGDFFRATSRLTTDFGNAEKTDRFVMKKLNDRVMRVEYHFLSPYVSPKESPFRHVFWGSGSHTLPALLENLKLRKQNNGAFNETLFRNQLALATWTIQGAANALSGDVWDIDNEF
Procedure: Samples were analyzed via Bio-Layer Interferometry (BLI) to determine kinetics against human transferrin receptor 1 (hTfR1). Briefly, an Octet RH16 (Sartorius) was used for BLI measurements using streptavidin biosensors (Sartorius p/n 18-5019) to irreversibly immobilize biotinylated hTfR1 (Acro Bio p/n TFR-H82E5). […] Sample diluent was prepared in house and is composed of 10 mM PBS pH 7.4 (150 mM NaCl), 0.01% BSA, 0.002% Tween 20, and 0.01% kathon. A 96-well plate was used for analysis, filled with required samples solutions and a row of 10 μg/mL hTfR1 for loading of the streptavidin sensors. For each sample, one well was reserved for a reference sensor control (non-specific binding evaluation with no hTfR1 on surface in highest sample concentration) and a sample reference (buffer only on a hTfR1 loaded sample). One well was also reserved for a second replicate of one of the five concentrations to evaluate sensor and method variability. Eight channels were used for the highest sensitivity offered by the Octet RH16. For each assay performed, the steps were as follows: a sensor check for baseline evaluation of sensor alone in buffer was performed for 30 seconds, followed by loading of the cTfR1 for 60 seconds, then a baseline check for 90 seconds to verify stability of cTfR1 immobilized to sensor surface, then sample association for 180 seconds, and finally sample dissociation for 300 seconds. A shake speed of 1000 was used for all steps. Sample results are analyzed in Octet Analysis software.

T1 sequence (chain, as listed by the source): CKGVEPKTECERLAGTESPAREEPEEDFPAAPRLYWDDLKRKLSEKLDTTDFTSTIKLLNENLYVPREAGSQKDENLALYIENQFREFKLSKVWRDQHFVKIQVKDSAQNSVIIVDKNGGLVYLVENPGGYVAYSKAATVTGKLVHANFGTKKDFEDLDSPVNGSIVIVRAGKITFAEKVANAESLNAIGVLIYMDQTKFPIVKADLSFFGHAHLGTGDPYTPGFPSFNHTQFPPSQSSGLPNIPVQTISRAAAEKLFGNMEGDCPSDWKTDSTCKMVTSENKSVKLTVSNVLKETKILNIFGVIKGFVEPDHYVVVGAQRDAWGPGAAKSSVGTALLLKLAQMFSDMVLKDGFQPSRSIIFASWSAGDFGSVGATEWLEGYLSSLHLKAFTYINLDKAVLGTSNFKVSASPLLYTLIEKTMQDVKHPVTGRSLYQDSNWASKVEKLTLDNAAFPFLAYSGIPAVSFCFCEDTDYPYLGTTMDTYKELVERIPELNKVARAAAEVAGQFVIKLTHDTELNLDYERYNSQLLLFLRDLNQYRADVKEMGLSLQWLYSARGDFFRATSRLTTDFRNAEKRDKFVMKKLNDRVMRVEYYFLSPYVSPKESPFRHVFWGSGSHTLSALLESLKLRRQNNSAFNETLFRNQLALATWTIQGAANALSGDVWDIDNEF

| Binder | Kd [1] [nM] | koff [1] [s⁻¹] | kon [1] [M⁻¹ s⁻¹] | Kd [2] [nM] | koff [2] [s⁻¹] | kon [2] [M⁻¹ s⁻¹] |
| --- | --- | --- | --- | --- | --- | --- |
| Fab0061-siRNA conjugate (Fab, V domains shown, siRNA-linker on a reduced cysteine; chain and residue not stated, also called Fab0061 (BLI conjugate columns)) VH: EVQLVESGGGLVQPGGSLRLSCATSGYTFTSYWMHWVRQAPGKGLEWVAEINPTNGRVNYIEKFKSRITLSVDKSKSTVYLQMNSLRAEDTAVYYCARGTRAYHYWGQGTLVTVSS VL: DIQLTQSPSSLSASVGDRVTITCRASDGLYSNLAWYQQKPGKAPKLLIYDATKLASGVPSRFSGSGSGTDYTLTISSLQPEDFATYYCQHFWGTPLTFGQGTKVEIKR | 6.85 | 0.0017 | 248000 | 1.9 | 0.000527 | 278000 |
| Fab0069-siRNA conjugate (Fab, V domains shown, siRNA-linker on a reduced cysteine; chain and residue not stated, also called Fab0069 (BLI conjugate columns)) VH: EVQLVESGGGLVQPGGSLRLSCATSGYTFTSYWVHWVRQAPGKGLEWVAEINPTNGRSNYIEKFKSRITLSVDKSKSTVYLQMNSLRAEDTAVYYCARGTRAYHYWGQGTLVTVSS VL: DIQLTQSPSSLSASVGDRVTITCRASDGLYSNLAWYQQKPGKAPKLLIYDATKLASGVPSRFSGSGSGTDYTLTISSLQPEDFATYYCQHFWGTPLTFGQGTKVEIKR | 9.58 | 0.00245 | 256000 | 5.45 | 0.00164 | 301000 |
| Fab0063-siRNA conjugate (Fab, V domains shown, siRNA-linker on a reduced cysteine; chain and residue not stated, also called Fab0063 (BLI conjugate columns)) VH: EVQLVESGGGLVQPGGSLRLSCATSGYTFTSYWMHWVRQAPGKGLEWVAEINPTNGRVNYIEKFKSRITLSVDKSKSTVYLQMNSLRAEDTAVYYCARGTRAYHYWGQGTLVTVSS VL: DIQLTQSPSSLSASVGDRVTITCRASDGLYSNLAWYQQKPGKAPKLLIYDATRLASGVPSRFSGSGSGTDYTLTISSLQPEDFATYYCQHFWGTPLTFGQGTKVEIKR | 8.37 | 0.0022 | 263000 | 2.72 | 0.000775 | 285000 |
| Fab0066-siRNA conjugate (Fab, V domains shown, siRNA-linker on a reduced cysteine; chain and residue not stated, also called Fab0066 (BLI conjugate columns)) VH: EVQLVESGGGLVQPGGSLRLSCATSGYTFTSYWVHWVRQAPGKGLEWVAEINPTNGRVNYIEKFKSRITLSVDKSKSTVYLQMNSLRAEDTAVYYCARGTRAYHYWGQGTLVTVSS VL: DIQLTQSPSSLSASVGDRVTITCRASDGLYSNLAWYQQKPGKAPKLLIYDAFNLASGVPSRFSGSGSGTDYTLTISSLQPEDFATYYCQHFWGTPLTFGQGTKVEIKR | 10 | 0.00335 | 334000 | 1.81 | 0.000469 | 259000 |
| Fab0065-siRNA conjugate (Fab, V domains shown, siRNA-linker on a reduced cysteine; chain and residue not stated, also called Fab0065 (BLI conjugate columns)) VH: EVQLVESGGGLVQPGGSLRLSCATSGYTFTSYWVHWVRQAPGKGLEWVAEINPTNGRSNYIEKFKSRITLSVDKSKSTVYLQMNSLRAEDTAVYYCARGTRAYHYWGQGTLVTVSS VL: DIQLTQSPSSLSASVGDRVTITCRASDNLYRNLAWYQQKPGKAPKLLIYDATKLASGVPSRFSGSGSGTDYTLTISSLQPEDFATYYCQHFWGTPLTFGQGTKVEIKR | 5.63 | 0.0013 | 231000 | 2.64 | 0.00082 | 310000 |
| Fab0062-siRNA conjugate (Fab, V domains shown, siRNA-linker on a reduced cysteine; chain and residue not stated, also called Fab0062 (BLI conjugate columns)) VH: EVQLVESGGGLVQPGGSLRLSCATSGYTFTSYWMHWVRQAPGKGLEWVAEINPTNGRVNYIEKFKSRITLSVDKSKSTVYLQMNSLRAEDTAVYYCARGTRAYHYWGQGTLVTVSS VL: DIQLTQSPSSLSASVGDRVTITCRASDGLYSNLAWYQQKPGKAPKLLIYDAFNLASGVPSRFSGSGSGTDYTLTISSLQPEDFATYYCQHFWGTPLTFGQGTKVEIKR | 11 | 0.00263 | 238000 | 4.47 | 0.00123 | 275000 |
| Fab0068-siRNA conjugate (Fab, V domains shown, siRNA-linker on a reduced cysteine; chain and residue not stated, also called Fab0068 (BLI conjugate columns)) VH: EVQLVESGGGLVQPGGSLRLSCATSGYTFTSYWVHWVRQAPGKGLEWVAEINPTNGRVNYIEKFKSRITLSVDKSKSTVYLQMNSLRAEDTAVYYCARGTRAYHYWGQGTLVTVSS VL: DIQLTQSPSSLSASVGDRVTITCRASDGLYSNLAWYQQKPGKAPKLLIYDATKLASGVPSRFSGSGSGTDYTLTISSLQPEDFATYYCQHFWGTPLTFGQGTKVEIKR | 8.89 | 0.00221 | 249000 | 1.69 | 0.000432 | 256000 |
| Fab0067-siRNA conjugate (Fab, V domains shown, siRNA-linker on a reduced cysteine; chain and residue not stated, also called Fab0067 (BLI conjugate columns)) VH: EVQLVESGGGLVQPGGSLRLSCATSGYTFTSYWVHWVRQAPGKGLEWVAEINPTNGRTNYIEKFKSRITLSVDKSKSTVYLQMNSLRAEDTAVYYCARGTRAYHYWGQGTLVTVSS VL: DIQLTQSPSSLSASVGDRVTITCRASDNLYRNLAWYQQKPGKAPKLLIYDATKLASGVPSRFSGSGSGTDYTLTISSLQPEDFATYYCQHFWGTPLTFGQGTKVEIKR | 5.02 | 0.0019 | 378000 | 0.623 | 0.000167 | 268000 |
| Fab0070-siRNA conjugate (Fab, V domains shown, siRNA-linker on a reduced cysteine; chain and residue not stated, also called Fab0070 (BLI conjugate columns)) VH: EVQLVESGGGLVQPGGSLRLSCATSGFTFTSYWMHWVRQAPGKGLEWVAEINPTNGRTNYIEKFKSRITLSVDKSKSTVYLQMNSLRAEDTAVYYCARGTRAYHYWGQGTLVTVSS VL: DIQLTQSPSSLSASVGDRVTITCRASDKLYSNLAWYQQKPGKAPKLLIYDATLLASGVPSRFSGSGSGTDYTLTISSLQPEDFATYYCQHFWGTPLTFGQGTKVEIKR | 16.9 | 0.00413 | 244000 | 3.71 | 0.000974 | 263000 |
| Fab0073-siRNA conjugate (Fab, V domains shown, siRNA-linker on a reduced cysteine; chain and residue not stated, also called Fab0073 (BLI conjugate columns)) VH: EVQLVESGGGLVQPGGSLRLSCATSGYTFKSYWMHWVRQAPGKGLEWVAEINPTNGRTNYIEKFKSRITLSVDKSKSTVYLQMNSLRAEDTAVYYCARGTRAYHYWGQGTLVTVSS VL: DIQLTQSPSSLSASVGDRVTITCRASDNLYRNLAWYQQKPGKAPKLLIYDATKLASGVPSRFSGSGSGTDYTLTISSLQPEDFATYYCQHFWGTPLTFGQGTKVEIKR | 9.23 | 0.00321 | 348000 | 2.1 | 0.000615 | 292000 |
| Fab0072-siRNA conjugate (Fab, V domains shown, siRNA-linker on a reduced cysteine; chain and residue not stated, also called Fab0072 (BLI conjugate columns)) VH: EVQLVESGGGLVQPGGSLRLSCATSGYTFNSYWMHWVRQAPGKGLEWVAEINPTNGRFNYIEKFKSRITLSVDKSKSTVYLQMNSLRAEDTAVYYCARGTRAYHYWGQGTLVTVSS VL: DIQLTQSPSSLSASVGDRVTITCRASDNLYRNLAWYQQKPGKAPKLLIYDARNLASGVPSRFSGSGSGTDYTLTISSLQPEDFATYYCQHFWGTPLTFGQGTKVEIKR | 10.8 | 0.00398 | 368000 | 0.898 | 0.000262 | 292000 |
| Fab0064-siRNA conjugate (Fab, V domains shown, siRNA-linker on a reduced cysteine; chain and residue not stated, also called Fab0064 (BLI conjugate columns)) VH: EVQLVESGGGLVQPGGSLRLSCATSGYTFTSYWMHWVRQAPGKGLEWVAEINPTNGRVNYIEKFKSRITLSVDKSKSTVYLQMNSLRAEDTAVYYCARGTRAYHYWGQGTLVTVSS VL: DIQLTQSPSSLSASVGDRVTITCRASDGLYSNLAWYQQKPGKAPKLLIYDAKNLASGVPSRFSGSGSGTDYTLTISSLQPEDFATYYCQHFWGTPLTFGQGTKVEIKR | 5.96 | 0.0019 | 319000 | 1.44 | 0.000393 | 273000 |
| Fab0071-siRNA conjugate (Fab, V domains shown, siRNA-linker on a reduced cysteine; chain and residue not stated, also called Fab0071 (BLI conjugate columns)) VH: EVQLVESGGGLVQPGGSLRLSCATSGYTFNSYWMHWVRQAPGKGLEWVAEINPTNGRTNYIEKFKSRITLSVDKSKSTVYLQMNSLRAEDTAVYYCARGTRAYHYWGQGTLVTVSS VL: DIQLTQSPSSLSASVGDRVTITCRASDGLYSNLAWYQQKPGKAPKLLIYDARNLASGVPSRFSGSGSGTDYTLTISSLQPEDFATYYCQHFWGTPLTFGQGTKVEIKR | 18.1 | 0.00429 | 234000 | 2.67 | 0.000716 | 268000 |
| Fab0060-siRNA conjugate (Fab, V domains shown, siRNA-linker on a reduced cysteine; chain and residue not stated, also called Fab0060 (BLI conjugate columns)) VH: EVQLVESGGGLVQPGGSLRLSCATSGYTFTSYWVHWVRQAPGKGLEWVAEINPTNGRTNYIEKFKSRITLSVDKSKSTVYLQMNSLRAEDTAVYYCARGTRAYHYWGQGTLVTVSS VL: DIQLTQSPSSLSASVGDRVTITCRASDGLYSNLAWYQQKPGKAPKLLIYDATKLASGVPSRFSGSGSGTDYTLTISSLQPEDFATYYCQHFWGTPLTFGQGTKVEIKR | 9.11 | 0.00252 | 276000 | 3.65 | 0.00109 | 298000 |
